Test results reported in the supplement of paper PMC12783771.
± gives the standard deviation of the averaged measurements.

B1: library; numbered along this chain (parent)
chain: MNIQIGELAKRTACPVVTIRFYEQEGLLPPPGRSRGNFRLYGEEHVERLQFIRHCRSLDMPLSDVRTLLSYRKRPDQDCGEVNMLLDEHIRQVESRIGALLELKHHLVELREACSGARPAQSCGILQGLSDCVCDTRGTTAHPSD

How the values were obtained:
[1] = variants of: B1; assay: sfGFP reporter fluorescence (15 h) (µM FITC); higher = higher leak; details: library round: Round 0; ligand: none
Method in brief: (§1)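 PCR-made linear PbrR templates (Echo-normalized to 5 nM) were expressed in BL21 Star (DE3) extract (PANOx-SP) with pPbrR-sfGFP reporter plasmid and 30 μg/mL GamS. Reactions were 1 μL, Echo-assembled, with 1 µM lead chloride, 30 µM zinc acetate or no metal, incubated 15 hr at 30 °C. Endpoint sfGFP fluorescence (485/528 nm, Synergy Neo2) was converted to µM FITC via standard curves in 50 mM sodium borate pH 8.5. Up to three biological replicates.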

[2] = variants of: B1; assay: sfGFP reporter fluorescence (15 h) (µM FITC); higher = stronger transcriptional activation; details: library round: Round 0
Method in brief: as §1

Variant	sfGFP reporter fluorescence [1]	sfGFP reporter fluorescence ([2]; ligand: 1 µM Pb)	sfGFP reporter fluorescence ([2]; ligand: 30 µM Zn)
MNIQIGELAKRTACPVVTIRFYEQEGLLPPPGRSRGNFRLYGEEHVERLQFIRHCRSLDMPLSDVRTLLSYRKRPDQDCGEVNMLLDEHIRQVESRLGALLELKHHLVELREACSGARPAQSCGILQGLSDCVCDTRGTTAHPSD [I97L]	0.0596 ± 0.0023	0.0797 ± 0.0044	0.842 ± 0.014
MNIQIGELAKRTACPVVTIRFYEQEGLLPPPGRSRGNFRLYGEEHVERLQFIRHCRSLDMPLSDVRTLLSYRKRPDQDCGEVNMLLDEHIRQVESRCGALLELKHHLVELREACSGARPAQSCGILQGLSDCVCDTRGTTAHPSD [I97C]	0.0601 ± 0.0015	0.0702 ± 0.0065	0.761 ± 0.036
MNIQIGELAKRTACPVVTIRFYEQEGLLPPPGRSRGNFRLYGEEHVERLQFIRHCRSLDMPLSDVRTLLSYRKRPDQDCGEVNMLLDEHIRQVESRAGALLELKHHLVELREACSGARPAQSCGILQGLSDCVCDTRGTTAHPSD [I97A]	0.0663 ± 0.0021	0.133 ± 0.0015	1.138 ± 0.007
MNIQIGELAKRTACPVVTIRFYEQEGLLPPPGRSRGNFRLYGEEHVERLQFIRHCRSLDMPLSDVRTLLSYRKRPDQDCGEVNMLLDEHIRQVESRFGALLELKHHLVELREACSGARPAQSCGILQGLSDCVCDTRGTTAHPSD [I97F]	0.0535 ± 0.0042	0.0592 ± 0.0029	0.278 ± 0.036
MNIQIGELAKRTACPVVTIRFYEQEGLLPPPGRSRGNFRLYGEEHVERLQFIRHCRSLDMPLSDVRTLLSYRKRPDQDCGEVNMLLDEHIRQVESRHGALLELKHHLVELREACSGARPAQSCGILQGLSDCVCDTRGTTAHPSD [I97H]	0.0564 ± 0.0062	0.0596 ± 0.0034	0.263 ± 0.0018
MNIQIGELAKRTACPVVTIRFYEQEGLLPPPGRSRGNFRLYGEEHVERLQFIRHCRSLDMPLSDVRTLLSYRKRPDQDCGEVNMLLDEHIRQVESRGGALLELKHHLVELREACSGARPAQSCGILQGLSDCVCDTRGTTAHPSD [I97G]	0.0555 ± 0.0013	0.0603 ± 0.0013	0.404 ± 0.014
MNIQIGELAKRTACPVVTIRFYEQEGLLPPPGRSRGNFRLYGEEHVERLQFIRHCRSLDMPLSDVRTLLSYRKRPDQDCGEVNMLLDEHIRQVESRNGALLELKHHLVELREACSGARPAQSCGILQGLSDCVCDTRGTTAHPSD [I97N]	0.0566 ± 0.0029	0.0603 ± 0.0039	0.325 ± 0.0065
MNIQIGELAKRTACPVVTIRFYEQEGLLPPPGRSRGNFRLYGEEHVERLQFIRHCRSLDMPLSDVRTLLSYRKRPDQDCGEVNMLLDEHIRQVESRPGALLELKHHLVELREACSGARPAQSCGILQGLSDCVCDTRGTTAHPSD [I97P]	0.0542 ± 0.0036	0.0561 ± 0.001	0.135 ± 0.0036
MNIQIGELAKRTACPVVTIRFYEQEGLLPPPGRSRGNFRLYGEEHVERLQFIRHCRSLDMPLSDVRTLLSYRKRPDQDCGEVNMLLDEHIRQVESREGALLELKHHLVELREACSGARPAQSCGILQGLSDCVCDTRGTTAHPSD [I97E]	0.0574 ± 0.0044	0.0618 ± 0.0018	0.386 ± 0.055
MNIQIGELAKRTACPVVTIRFYEQEGLLPPPGRSRGNFRLYGEEHVERLQFIRHCRSLDMPLSDVRTLLSYRKRPDQDCGEVNMLLDEHIRQVESRMGALLELKHHLVELREACSGARPAQSCGILQGLSDCVCDTRGTTAHPSD [I97M]	0.0574 ± 0.0023	0.057 ± 0.0023	0.2807 ± 0.00052
MNIQIGELAKRTACPVVTIRFYEQEGLLPPPGRSRGNFRLYGEEHVERLQFIRHCRSLDMPLSDVRTLLSYRKRPDQDCGEVNMLLDEHIRQVESRDGALLELKHHLVELREACSGARPAQSCGILQGLSDCVCDTRGTTAHPSD [I97D]	0.0596 ± 0.0044	0.0575 ± 0.001	0.193 ± 0.0054
MNIQIGELAKRTACPVVTIRFYEQEGLLPPPGRSRGNFRLYGEEHVERLQFIRHCRSLDMPLSDVRTLLSYRKRPDQDCGEVNMLLDEHIRQVESRKGALLELKHHLVELREACSGARPAQSCGILQGLSDCVCDTRGTTAHPSD [I97K]	0.0607 ± 0.0029	0.0597 ± 0.0021	0.102 ± 0.006
MNIQIGELAKRTACPVVTIRFYEQEGLLPPPGRSRGNFRLYGEEHVERLQFIRHCRSLDMPLSDVRTLLSYRKRPDQDCGEVNMLLDEHIRQVESAIGALLELKHHLVELREACSGARPAQSCGILQGLSDCVCDTRGTTAHPSD [R96A]	0.0564	0.07495 ± 0.00026	0.294 ± 0.0083
MNIQIGELAKRTACPVVTIRFYEQEGLLPPPGRSRGNFRLYGEEHVERLQFIRHCRSLDMPLSDVRTLLSYRKRPDQDCGEVNMLLDEHIRQVEARIGALLELKHHLVELREACSGARPAQSCGILQGLSDCVCDTRGTTAHPSD [S95A]	0.0625 ± 0.0013	0.0759 ± 0.0062	0.797 ± 0.063
